The values that follow come from paper PMC3982999.

The target of the test is human ubiquitin (human) (UniProt P0CG48). As to the kind of experiment: NMR titration.

For orientation: Kd means the equilibrium constant for the complex coming apart. The substance “WT spartin 155-367 (GST tag removed) (from UniProt Q8N0X7 155-367) (domain or fragment)” had a Kd below 10 µM.
